Data set [1] deals with the molecule itself. In words: native gel or EMSA; native gel electrophoresis in the presence of 2 mM ATP; assembly of the 23C-176C construct (Figure S1). In general terms: A gel shift assay detects complexes by their altered migration in electrophoresis.
Data set [2] deals with the molecule itself. The data set is described as follows: native gel or EMSA; native polyacrylamide gel electrophoresis; assembly of ClpB and ΔNClpB (Figure S2).

B1: 23C-176C double-cysteine mutant of full-length ClpB, labelled with Alexa Fluor 488 and Alexa Fluor 594 (natural protein)
chain: not shown
modifications: Alexa Fluor 488 and Alexa Fluor 594 (C5 maleimide) on the cysteines at 23 and 176
notes: The ATPase assay used the fully labelled protein. smFRET and FLCS used one labelled protomer in hexamers of WT ClpB; source: cloned into a pET28b vector, expressed and purified (protocol in the Supplementary Methods)
Consider B1, for which the binding result in data set [1] was “binds”.

B2: Thermus thermophilus ClpB, full-length (natural protein)
chain: not shown
notes: ClpB, Thermus thermophilus, full-length protein (NTD, NBD1, MD, NBD2); also called TT ClpB; TT; ClpB; source: cloned into a pET28b vector, expressed and purified (protocol in the Supplementary Methods)
Turning to B2, the binding result in data set [2] is recorded as “binds”.

B3: ΔNClpB, Thermus thermophilus ClpB lacking the N-terminal domain (domain or fragment)
chain: not shown
notes: ClpB, Thermus thermophilus, variant beginning at residue 141 (Val); lacks the first 140 residues; In the smFRET experiments one S288C-S631C protomer labelled with AF488/AF594 sat in hexamers of unlabelled ΔNClpB; also called NTD-truncated ClpB; truncated variant; source: cloned into a pET28b vector, expressed and purified (protocol in the Supplementary Methods)
On to B3, for which, in data set [2], the binding result is given as “binds”.
